This note sets out measurements from patent US6017763.

Test [1] addresses pig neutrophil Gβγ-activated PI3K B (p120/p101 heterodimer) (porcine).
Test [2] deals with pig neutrophil Gβγ-activated PI3K A (p117/p101 heterodimer) (porcine).
The target of test [3] is porcine twice-cut p120 (thrombin cleaved, lacking approximately 40 amino-terminal residues) (porcine).
In test [4] the target is porcine 6×HIS-tagged p120, Sf9-derived (pAcHLT p120), uncleaved (porcine).
Test [5] has as its target Sf9-derived p101/p120 heterodimer ((EE)-p101 with 6×HIS-p120), formed in vivo by co-infection or reconstituted in vitro (porcine).

Where only a bound is given, the exact number is not on record here.

Consider “Gβγ subunits (purified G protein βγ subunits)”, for which the PI3K (lipid kinase) activity in test [1] and in test [2] was more than 100 × each time. For the same substance, the PI3K activity of thrombin cleaved p120 in test [3] is 2.5 fold. The PI3K activity of free p120 in test [4] stood at 1.7 fold. Further, the PI3K activity in test [5] was more than 100 ×.
